From patent US20200317768A1 (published 2020)
Where a chain is given by its changes, count along the chain named. In names and notes the source's numbering stands.

T1: cynomolgus monkey FcγRIIa1 extracellular domain, His-tagged (cynomolgus monkey)
T1 construct: also called cyno FcγRIIa1; cynoFcgRIIa1; not shown: C-terminal His-tag
T1 chain: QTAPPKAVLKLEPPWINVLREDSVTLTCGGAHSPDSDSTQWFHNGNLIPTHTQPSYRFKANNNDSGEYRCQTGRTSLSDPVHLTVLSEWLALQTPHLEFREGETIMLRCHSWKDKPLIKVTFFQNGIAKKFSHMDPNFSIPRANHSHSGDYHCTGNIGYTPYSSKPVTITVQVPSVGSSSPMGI

T2: cynomolgus monkey FcγRIIa2 extracellular domain, His-tagged (cynomolgus monkey)
T2 construct: also called cyno FcγRIIa2; cynoFcgRIIa2; not shown: C-terminal His-tag
T2 chain: T1 chain with P95T, T121A, I127K, A128S, K130N, D135N, R142Q

T3: cynomolgus monkey FcγRIIa3 extracellular domain, His-tagged (cynomolgus monkey)
T3 construct: also called cyno FcγRIIa3; cynoFcgRIIa3; not shown: C-terminal His-tag
T3 chain: T1 chain with P95T, T121A, A128S, H133P, D135N

T4: cynomolgus monkey FcγRIIb extracellular domain, His-tagged (cynomolgus monkey)
T4 construct: also called cyno FcγRIIb; cynoFcγRIIb; not shown: C-terminal His-tag
T4 chain: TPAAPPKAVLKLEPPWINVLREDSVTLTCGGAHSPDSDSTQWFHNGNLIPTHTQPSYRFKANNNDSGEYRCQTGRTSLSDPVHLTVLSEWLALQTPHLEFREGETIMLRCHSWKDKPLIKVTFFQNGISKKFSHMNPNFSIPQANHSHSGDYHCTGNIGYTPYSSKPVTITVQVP

T5: cynomolgus monkey FcγRIIIaS extracellular domain, His-tagged (cynomolgus monkey, UniProt Q8SPW2 21-206 at identity 1.00))
T5 construct: also called cyno FcγRIIIaS; cynoFcγRIIIaS; not shown: C-terminal His-tag
T5 chain: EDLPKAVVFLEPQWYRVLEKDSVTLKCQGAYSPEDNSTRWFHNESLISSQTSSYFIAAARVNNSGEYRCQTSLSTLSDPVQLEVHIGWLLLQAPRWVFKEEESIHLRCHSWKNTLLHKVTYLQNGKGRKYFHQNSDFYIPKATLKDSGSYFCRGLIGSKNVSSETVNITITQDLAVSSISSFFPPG

T6: human FcγRIIaH extracellular domain, His-tagged (human, UniProt P12318 34-217)
T6 construct: also called human FcγRIIa (type H); FcgRIIaH; not shown: C-terminal His-tag
T6 sequence: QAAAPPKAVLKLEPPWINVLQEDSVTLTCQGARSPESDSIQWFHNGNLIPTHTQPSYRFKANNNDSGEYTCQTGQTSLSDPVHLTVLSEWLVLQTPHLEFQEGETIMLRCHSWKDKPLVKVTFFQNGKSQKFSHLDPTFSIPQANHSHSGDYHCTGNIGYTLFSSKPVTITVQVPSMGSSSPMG

T7: human FcγRIIaR extracellular domain, His-tagged (human, UniProt P12318 34-217)
T7 construct: also called human FcγRIIa (type R); FcgRIIaR; not shown: C-terminal His-tag
T7 chain: T6 sequence with H134R

T8: human FcγRIIb extracellular domain, His-tagged (human, UniProt P31994 43-217)
T8 construct: also called FcgRIIb (human); not shown: C-terminal His-tag
T8 sequence: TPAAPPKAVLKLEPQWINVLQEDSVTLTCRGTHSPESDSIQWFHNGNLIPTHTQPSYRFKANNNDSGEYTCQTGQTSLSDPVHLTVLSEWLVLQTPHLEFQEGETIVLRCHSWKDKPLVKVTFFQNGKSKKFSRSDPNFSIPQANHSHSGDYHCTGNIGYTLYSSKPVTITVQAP

T9: human FcγRIIaH extracellular domain, C-terminal His-tag (human, UniProt P12318 34-217)
T9 construct: also called human FcγRIIa (type H); FcgRIIaH
T9 sequence: T6 sequence

T10: human FcγRIIb extracellular domain, C-terminal His-tag (human, UniProt P31994 43-217)
T10 construct: also called FcgRIIb (human)
T10 sequence: T8 sequence

B1: M103205H795-MY452/M103202L889-SK1 (antibody, human IgG1, kappa)
heavy: QVTLKESGPVLVKPTETLTLTCTVSGIDLSHDDISWVRQAPGKGLEWVGIISYAGSTYYASWAKGRLTISKDTSKNQVVLTMTNMDPVDTATYYCARGVPAYSHGGDLWGQGTLVTVSSASTKGPSVFPLAPSSKSTSGGTAALGCLVKDYFPEPVTVSWNSGALTSGVHTFPAVLQSSGLYSLSSVVTVPSSSLGTQTYICNVNHKPSNTKVDKKVEPKSCDKTHTCPPCPAQELLTGPSVFLFPPKPKDTLMISRTPEVTCVVVDVSDEDPEVKFNWYVDGVEVHNAKTKPREEQYNSTYRVVSVLTVLHQDWLNGKEYKCKVSNKALPKPIEKTISKAKGQPREPQVYTLPPSREEMTKNQVSLTCLVKGFYPSDIAVEWESNGQPENNYKTTPPVLDSDGSFFLYSKLTVDKSRWQQGNVFSCSVMHEALHNHYTQKSLSLSP
light: DIVMTQSPATLSLSPGERATLSCTSSQSVYHANWLSWFQQKPGQPPKLLIYWASTLAYGVPSRFSGSGSGTDFTLTISSLQPEDAATYYCAGGYGGGRYAFGQGTKVEIKRTVAAPSVFIFPPSDEQLKSGTASVVCLLNNFYPREAKVQWKVDNALQSGNSQESVTEQDSKDSTYSLSSTLTLSKADYEKHKVYACEVTHQGLSSPVTKSFNRGEC
notes: copies: 2 + 2
B2: M103205H795-MY456/M103202L889-SK1 (antibody, human IgG1, kappa)
heavy: B1 heavy with Q234V
light: B1 light
notes: copies: 2 + 2
B3: M103205H795-MY454/M103202L889-SK1 (antibody, human IgG1, kappa)
heavy: B1 heavy with Q234S
light: B1 light
notes: copies: 2 + 2
B4: M103205H795-MY453/M103202L889-SK1 (antibody, human IgG1, kappa)
heavy: B1 heavy with Q234R
light: B1 light
notes: copies: 2 + 2
B5: M103205H795-MY455/M103202L889-SK1 (antibody, human IgG1, kappa)
heavy: B1 heavy with Q234T
light: B1 light
notes: copies: 2 + 2
B6: M103205H795-MY457/M103202L889-SK1 (antibody, human IgG1, kappa)
heavy: B1 heavy with Q234W
light: B1 light
notes: copies: 2 + 2
B7: M103205H795-MY458/M103202L889-SK1 (antibody, human IgG1, kappa)
heavy: B1 heavy with Q234Y
light: B1 light
notes: copies: 2 + 2
B8: GpH7-B3 variant N325F/GpL16-k0 (antibody, human IgG1, kappa)
heavy: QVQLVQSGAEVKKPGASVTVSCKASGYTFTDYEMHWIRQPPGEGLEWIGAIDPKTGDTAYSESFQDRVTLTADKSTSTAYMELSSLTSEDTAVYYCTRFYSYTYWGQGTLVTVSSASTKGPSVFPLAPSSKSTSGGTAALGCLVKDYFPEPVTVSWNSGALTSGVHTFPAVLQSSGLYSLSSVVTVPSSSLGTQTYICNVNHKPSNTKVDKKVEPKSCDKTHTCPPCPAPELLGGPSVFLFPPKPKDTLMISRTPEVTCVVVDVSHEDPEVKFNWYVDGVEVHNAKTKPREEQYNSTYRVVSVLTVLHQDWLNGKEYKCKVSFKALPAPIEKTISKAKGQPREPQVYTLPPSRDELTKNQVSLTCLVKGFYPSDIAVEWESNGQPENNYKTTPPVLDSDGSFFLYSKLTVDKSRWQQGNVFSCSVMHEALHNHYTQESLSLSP
light: DIVMTQSPLSLPVTPGEPASISCQASESLVHSNRNTYLHWYLQKPGQSPQLLIYKVSNRFSGVPDRFSGSGSGTDFTLKISRVEAEDVGVYYCSQNTHVPPTFGQGTKVEIERTVAAPSVFIFPPSDEQLKSGTASVVCLLNNFYPREAKVQWKVDNALQSGNSQESVTEQDSKDSTYSLSSTLTLSKADYEKHKVYACEVTHQGLSSPVTKSFNRGEC
B9: GpH7-B3 variant V266F/GpL16-k0 (antibody, human IgG1, kappa)
heavy: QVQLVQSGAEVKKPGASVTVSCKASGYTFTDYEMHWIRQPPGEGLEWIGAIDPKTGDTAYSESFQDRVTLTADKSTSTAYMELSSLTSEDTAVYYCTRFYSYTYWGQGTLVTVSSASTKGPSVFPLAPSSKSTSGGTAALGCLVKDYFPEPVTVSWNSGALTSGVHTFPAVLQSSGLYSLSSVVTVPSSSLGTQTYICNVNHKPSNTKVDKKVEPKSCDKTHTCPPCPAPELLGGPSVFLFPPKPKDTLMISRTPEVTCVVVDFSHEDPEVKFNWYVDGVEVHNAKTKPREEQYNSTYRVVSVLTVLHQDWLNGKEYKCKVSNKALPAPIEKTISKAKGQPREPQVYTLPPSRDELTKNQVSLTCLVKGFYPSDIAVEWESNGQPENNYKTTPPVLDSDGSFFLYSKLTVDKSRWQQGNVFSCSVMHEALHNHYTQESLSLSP
light: B8 light

Molecular target: T1, cynomolgus monkey FcγRIIa1 …
Assay: SPR (BIACORE), captured antibody, FcgR as analyte
Experimental: (§1) The kinetic analysis of interactions between these antibodies and FcγR was carried out using BIACORE® T200 or BIACORE® 4000 (GE Healthcare). HBS-EP+ (GE Healthcare) was used as the running buffer, and the measurement temperature was set to 25° C. A chip produced by immobilizing Protein A. Protein A/G or mouse anti-human IgG kappa light chain (BD Biosciences) onto a Series S Sensor Chip CM4 or CM5 (GE Healthcare) by the amine-coupling method was used. […] After the measurement, the antibody captured on the chip was washed off by allowing reaction with 10 mM glycine-HCl, pH1.5 and 25 mM NaOH so that the chip was regenerated and used repeatedly. The sensorgrams obtained as measurement results were analyzed by the 1:1 Langmuir binding model using the BIACORE® Evaluation Software to calculate the binding rate constant ka (L/mol/s) and dissociation rate constant kd (l/s), and the dissociation constant KD (mol/L) was calculated from these values. […] Regarding such interactions, KD values were calculated using the following 1:1 binding model described in BIACORE® T100 Software Handbook BR1006-48 Edition AE.

| Kd | Binder |
| --- | --- |
| 3.4 µM | B1 |
| 1.9 µM | B2 |
| 3.8 µM | B3 |
| 8.2 µM | B4 |
| 3.1 µM | B5 |
| 0.83 µM | B6 |
| 1.8 µM | B7 |

Molecular target: T2, cynomolgus monkey FcγRIIa2 …
Assay: SPR (BIACORE), captured antibody, FcgR as analyte
Experimental: as §1

| Kd | Binder |
| --- | --- |
| 3.1 µM | B1 |
| 1.7 µM | B2 |
| 3.1 µM | B3 |
| 9.9 µM | B4 |
| 1.9 µM | B5 |
| 0.84 µM | B6 |
| 1.6 µM | B7 |

Molecular target: T3, cynomolgus monkey FcγRIIa3 …
Assay: SPR (BIACORE), captured antibody, FcgR as analyte
Experimental: as §1

| Kd | Binder |
| --- | --- |
| 6.5 µM | B1 |
| 3.4 µM | B2 |
| 7.6 µM | B3 |
| 21 µM | B4 |
| 5.4 µM | B5 |
| 1.2 µM | B6 |
| 3 µM | B7 |

Molecular target: T4, cynomolgus monkey FcγRIIb extracellular …
Assay: SPR (BIACORE), captured antibody, FcgR as analyte
Experimental: as §1

| Kd | Binder |
| --- | --- |
| 0.92 µM | B1 |
| 0.52 µM | B2 |
| 1 µM | B3 |
| 2.1 µM | B4 |
| 0.92 µM | B5 |
| 0.2 µM | B6 |
| 0.43 µM | B7 |

Molecular target: T5, cynomolgus monkey FcγRIIIaS …
Assay: SPR (BIACORE), captured antibody, FcgR as analyte
Experimental: as §1

| Kd | Binder |
| --- | --- |
| 2.8 µM | B1 |
| 2 µM | B2 |
| 2.5 µM | B3 |
| 6.5 µM | B4 |
| 2.8 µM | B5 |
| 1.1 µM | B6 |
| 0.19 µM | B7 |

molecular target: T6, human FcγRIIaH extracellular domain, …; assay: SPR (BIACORE), captured antibody, FcgR as analyte
Experimental: as §1

| Kd | Binder |
| --- | --- |
| 0.36 µM | B1 |
| 0.17 µM | B2 |
| 0.41 µM | B3 |
| 0.75 µM | B4 |
| 0.31 µM | B5 |
| 0.12 µM | B6 |
| 0.16 µM | B7 |

Molecular target: T7, human FcγRIIaR extracellular domain, …
Assay: SPR (BIACORE), captured antibody, FcgR as analyte
Experimental: as §1

| Kd | Binder |
| --- | --- |
| 0.62 µM | B1 |
| 0.29 µM | B2 |
| 0.76 µM | B3 |
| 1.6 µM | B4 |
| 0.46 µM | B5 |
| 0.073 µM | B6 |
| 0.17 µM | B7 |

molecular target: T8, human FcγRIIb extracellular domain, …; assay: SPR (BIACORE), captured antibody, FcgR as analyte
Experimental: as §1

| Kd | Binder |
| --- | --- |
| 2.9 µM | B1 |
| 1.1 µM | B2 |
| 3.1 µM | B3 |
| 6.5 µM | B4 |
| 2.2 µM | B5 |
| 0.33 µM | B6 |
| 0.99 µM | B7 |

molecular target: T11, human FcγRIIIaV extracellular domain, His-tagged (human, UniProt P08637 17-208); assay: SPR (BIACORE), captured antibody, FcgR as analyte
T11 construct: also called FcgRIIIaV; not shown: C-terminal His-tag
Experimental: as §1

T11 sequence (P08637 17-208 F176V): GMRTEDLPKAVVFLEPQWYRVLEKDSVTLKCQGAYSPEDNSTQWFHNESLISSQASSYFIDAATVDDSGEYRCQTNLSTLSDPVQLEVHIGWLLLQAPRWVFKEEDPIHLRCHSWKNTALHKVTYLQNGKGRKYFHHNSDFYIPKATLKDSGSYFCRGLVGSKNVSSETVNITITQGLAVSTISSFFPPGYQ

| Kd | Binder |
| --- | --- |
| 6.1 µM | B1 |
| 5.3 µM | B2 |
| 5.9 µM | B3 |
| 14 µM | B4 |
| 6.8 µM | B5 |
| 3.5 µM | B6 |
| 5.3 µM | B7 |

molecular target: T9, human FcγRIIaH extracellular domain, …; assay: SPR 25C; FcgR bound per captured antibody, relative to parent B3
Experimental: (§2) These Fc variants are referred to as B3 variants. B3 variants were expressed and the binding of protein-A purified antibodies to each FcγR (FcγRIIa type H. FcγRIIa type R, FcγRIIb, and FcγRIIIaF) was comprehensively evaluated as follows. Analysis of interaction between each altered antibody and the Fcγ receptor prepared as mentioned above was carried out using BIACORE® T100 (GE Healthcare), BIACORE® T200 (GE Healthcare), BIACORE® A100, or BIACORE® 4000. HBS-EP+(GE Healthcare) was used as the running buffer, and the measurement temperature was set to 25° C. Chips produced by immobilizing Protein A (Thermo Scientific), Protein A/G (Thermo Scientific), or Protein L (ACTIGEN or BioVision) by the amine coupling method to a Series S sensor Chip CM5 or CM4 (GE Healthcare) were used. After capturing of antibodies of interest onto these sensor chips, an Fcγ receptor diluted with the running buffer was allowed to interact, the amount bound to an antibody was measured. However, since the amount of Fcγ receptor bound depends on the amount of the captured antibodies, the amount of Fcγ receptor bound was divided by the amount of each antibody captured to obtain corrected values, and these values were compared. Furthermore, antibodies captured onto the chips were washed by 10 mM glycine-HCl pH1.5, and the chips were regenerated and used repeatedly. […] The value obtained by multiplying this value by 100 was used as an indicator of the relative FcγR-binding activity of each variant.

| Binding to human FcgRs (parent B3 = 100) | Binder |
| --- | --- |
| 65 parent B3 = 100 | B8 |

molecular target: T10, human FcγRIIb extracellular domain, …; assay: as above
Experimental: as §2

| Binding to human FcgRs (parent B3 = 100) | Binder |
| --- | --- |
| 72 parent B3 = 100 | B8 |
| 88 parent B3 = 100 | B9 |
